According to publication PMC9956592 (2023):
Positions count from the first letter of the chain named.

B1: scTGP USP11-C3, purified protein (scFv, V domains shown)
VH: QVQLVQSGAEVKKPGSSVKVSCKASGGTFSSYAISWVRQAPGQGLEWMGGIIPIFGTANYAQKFQGRVTITADESTSTAYMELSSLRSEDTAVYYCAREGGIGLSGWLDPWGQGTLVTVSS
VL: EIVLTQSPGTLSLSPGERATLFCRASQSVSSNLAWYQQKPGQAPRLLIYGASTRATGIPARFSGSGSGTEFTLTISSLQSEDFAVYYCQQYDDWPLTFGGGTKVDIK
B2: scTGP USP11-B6, purified protein (scFv, V domains shown)
VH: B1 VH with Q65L
VL: EIVMTQTPGTLCLSPGERATLSCRASQSVSNNNLAWYQQKPGQAPRLLIFGASNRATGIPDRFSGSGSGTDFTLTISSLQSEDFAVYYCQQYDSWPLTFGGGTKLEIK

Columns and labels:
[1] = biological target: T1, Ubiquitin Specific Peptidase 11 (USP11) (human, UniProt P51784 1-963, biotin (biotinylated USP11 in the yeast display assays)); experiment: SPR
[2] = biological target: T1, Ubiquitin Specific Peptidase 11 (USP11); experiment: SPR; remark: listed apart in the source

T1 sequence (P51784 whole entry): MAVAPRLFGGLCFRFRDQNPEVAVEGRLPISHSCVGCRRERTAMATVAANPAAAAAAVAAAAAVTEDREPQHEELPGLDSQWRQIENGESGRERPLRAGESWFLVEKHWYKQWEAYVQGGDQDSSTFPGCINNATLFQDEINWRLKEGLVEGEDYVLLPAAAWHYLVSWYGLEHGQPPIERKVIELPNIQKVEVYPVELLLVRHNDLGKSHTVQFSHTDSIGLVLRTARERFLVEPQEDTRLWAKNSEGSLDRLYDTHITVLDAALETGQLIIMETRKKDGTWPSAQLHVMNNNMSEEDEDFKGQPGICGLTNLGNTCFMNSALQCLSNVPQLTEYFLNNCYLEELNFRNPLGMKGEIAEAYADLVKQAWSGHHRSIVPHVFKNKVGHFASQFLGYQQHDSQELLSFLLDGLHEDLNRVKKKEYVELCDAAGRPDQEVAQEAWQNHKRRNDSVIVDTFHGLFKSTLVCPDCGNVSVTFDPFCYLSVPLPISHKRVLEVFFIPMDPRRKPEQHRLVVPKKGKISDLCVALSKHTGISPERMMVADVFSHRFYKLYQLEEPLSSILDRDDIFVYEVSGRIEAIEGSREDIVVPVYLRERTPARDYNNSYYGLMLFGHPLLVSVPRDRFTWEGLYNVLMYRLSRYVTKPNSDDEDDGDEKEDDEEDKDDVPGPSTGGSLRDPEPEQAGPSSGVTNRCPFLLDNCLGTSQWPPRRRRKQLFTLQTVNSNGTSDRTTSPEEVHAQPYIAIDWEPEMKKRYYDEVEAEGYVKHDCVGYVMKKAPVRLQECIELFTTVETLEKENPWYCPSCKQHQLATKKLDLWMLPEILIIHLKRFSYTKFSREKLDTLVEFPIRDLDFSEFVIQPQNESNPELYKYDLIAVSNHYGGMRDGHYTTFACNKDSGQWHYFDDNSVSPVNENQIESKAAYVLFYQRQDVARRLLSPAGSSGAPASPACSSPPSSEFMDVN

Binder | Kd [1] | koff [2]
B1 | 160 nM | 0.0038 s⁻¹
B2 | 48 nM | 0.00089 s⁻¹
